Results taken from US20210253733A1 (ONCORESPONSE, published 2021).

Tests used:
[1] = molecular target: T1, human CD163 expressed on human myeloid cells (M2c macrophages, M2 macrophages, in vitro MDSCs) (human, UniProt Q86VB7 42-1114); assay: flow cytometry, AF647-conjugated AB102 on polarized M2c macrophages without siRNA
T1 construct: Endogenous CD163 on primary human monocyte-derived cells; also called huCD163; CD163^Hi cells
Description: The macrophage detachment solution was replaced with cold PBS−/− (PBS without calcium and magnesium; Hyclone No. SH30028.02) containing 0.2 mM EDTA and 0.1% HSA. The cells were spun down at 650×g for 5 min and then resuspended in 0.5 mL cold Block solution (FACS buffer+10% NGS+10 μg of human IgG Fc fragment protein (Abcam No. ab90285)) per million cells. The cells were counted and an average of 1×10⁶ per mL was used for further calculations. The cells were incubated at RT for 15 min (to increase FcR binding), followed by a 30 min incubation on ice for full blocking. An aliquot of unstained cells was set aside for compensation controls. e780 viability dye (ThermoFisher eBioscience No. 65-0865-18) was added to the remainder at a final dilution of 1:1000. Cells were aliquoted into 96-well plates (40 μL per well), and 10 μL of antibody solution was added to each well. Antibodies were prepared with a starting concentration of 100 μg/mL in FACS buffer and serially diluted in FACS buffer. After addition of antibodies, each set of cells was tested with an antibody panel (AB101 in FcNull framework conjugated to AF647 and commercial anti-CD163 conjugated to BV421 [BioLegend No. 333612]) and an isotype panel (ISO2 in FcNull framework conjugated to AF647 and commercial mIgG1 conjugated to BV421). […] Cells were then analyzed by flow cytometry on a BD Canto II machine.

[2] = molecular target: T2, His-tagged recombinant human CD163 (R&D Systems, No. 1607-CD-050) (human, UniProt Q86VB7 46-1050); assay: ELISA, plate coated with 5 ug/mL His-tagged recombinant human CD163, HRP anti-human IgG F(ab')2, A450
T2 construct: Bought protein; also called huCD163; not shown: His tag
T2 sequence (Q86VB7 46-1050 limits assumed): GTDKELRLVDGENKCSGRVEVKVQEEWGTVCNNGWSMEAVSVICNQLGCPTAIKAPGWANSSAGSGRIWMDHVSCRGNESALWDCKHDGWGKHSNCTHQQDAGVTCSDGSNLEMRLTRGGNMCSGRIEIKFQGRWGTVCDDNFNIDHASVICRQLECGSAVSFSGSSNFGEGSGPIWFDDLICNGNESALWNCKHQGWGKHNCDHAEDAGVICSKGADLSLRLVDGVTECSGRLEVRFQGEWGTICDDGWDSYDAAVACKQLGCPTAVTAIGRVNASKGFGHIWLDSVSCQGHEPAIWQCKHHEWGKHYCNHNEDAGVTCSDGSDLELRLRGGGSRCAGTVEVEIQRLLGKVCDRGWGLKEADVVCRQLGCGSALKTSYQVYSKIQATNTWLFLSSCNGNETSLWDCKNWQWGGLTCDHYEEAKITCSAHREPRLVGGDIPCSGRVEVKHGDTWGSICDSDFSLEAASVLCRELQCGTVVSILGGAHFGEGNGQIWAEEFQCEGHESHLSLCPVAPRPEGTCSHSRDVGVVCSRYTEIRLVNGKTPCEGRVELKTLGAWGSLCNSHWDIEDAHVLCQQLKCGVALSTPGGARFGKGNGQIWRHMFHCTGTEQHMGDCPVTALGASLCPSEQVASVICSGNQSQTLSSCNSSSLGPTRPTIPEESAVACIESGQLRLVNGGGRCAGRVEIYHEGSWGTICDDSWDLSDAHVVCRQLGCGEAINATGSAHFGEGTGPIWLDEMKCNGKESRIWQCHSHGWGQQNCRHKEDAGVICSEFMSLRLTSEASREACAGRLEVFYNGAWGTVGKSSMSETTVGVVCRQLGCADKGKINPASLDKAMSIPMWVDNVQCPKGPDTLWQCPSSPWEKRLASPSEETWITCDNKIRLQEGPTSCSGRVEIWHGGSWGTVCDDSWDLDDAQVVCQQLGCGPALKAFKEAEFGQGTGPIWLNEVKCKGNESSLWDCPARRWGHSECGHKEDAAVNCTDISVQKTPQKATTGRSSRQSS
Description: AB101 binding to His-tagged recombinant human CD163 (R&D Systems, No. 1607-CD-050) and recombinant murine CD163 (R&D Systems, No. 7435-CD-050) proteins was determined using ELISA. Recombinant proteins were diluted in PBS to 5 μg/mL and added to 384-well High binding ELISA plates (Greiner Bio-One, No. 781061) at 25 μL per well and incubated at 4° C. overnight. The plates were washed three times with PBS, using the BioTek ELx405 Select microplate washer (wash program ELISA_384_PBS_3×_wash) and then blocked with 90 μL/well of blocking buffer (2% nonfat, dry milk/PBS+0.05% Tween 20) for 1 hr at RT.
After blocking, 25 μL per well of primary antibodies were added to the plates and incubated for 1 hr at room temp. The test antibody was AB101; the control anti-huCD163 antibody was a commercially available antibody in murine IgG1 framework (R&D Systems, #MAB1607); the isotype controls were a proprietary mAb, in human IgG1, human FcNull, and murine IgG1 frameworks, with known specificity. After primary antibody binding, plates were washed three times with PBS using the EL405× (wash program ELISA_384_PBS_3×_wash). […] After development, the reaction was stopped by adding 25 μL per well of 0.3 M HCl and plates were read using the SpectraMax M5e instrument at 450 nm.

T1 sequence (Q86VB7 other isoform, or with tags, fused parts or gaps limits assumed): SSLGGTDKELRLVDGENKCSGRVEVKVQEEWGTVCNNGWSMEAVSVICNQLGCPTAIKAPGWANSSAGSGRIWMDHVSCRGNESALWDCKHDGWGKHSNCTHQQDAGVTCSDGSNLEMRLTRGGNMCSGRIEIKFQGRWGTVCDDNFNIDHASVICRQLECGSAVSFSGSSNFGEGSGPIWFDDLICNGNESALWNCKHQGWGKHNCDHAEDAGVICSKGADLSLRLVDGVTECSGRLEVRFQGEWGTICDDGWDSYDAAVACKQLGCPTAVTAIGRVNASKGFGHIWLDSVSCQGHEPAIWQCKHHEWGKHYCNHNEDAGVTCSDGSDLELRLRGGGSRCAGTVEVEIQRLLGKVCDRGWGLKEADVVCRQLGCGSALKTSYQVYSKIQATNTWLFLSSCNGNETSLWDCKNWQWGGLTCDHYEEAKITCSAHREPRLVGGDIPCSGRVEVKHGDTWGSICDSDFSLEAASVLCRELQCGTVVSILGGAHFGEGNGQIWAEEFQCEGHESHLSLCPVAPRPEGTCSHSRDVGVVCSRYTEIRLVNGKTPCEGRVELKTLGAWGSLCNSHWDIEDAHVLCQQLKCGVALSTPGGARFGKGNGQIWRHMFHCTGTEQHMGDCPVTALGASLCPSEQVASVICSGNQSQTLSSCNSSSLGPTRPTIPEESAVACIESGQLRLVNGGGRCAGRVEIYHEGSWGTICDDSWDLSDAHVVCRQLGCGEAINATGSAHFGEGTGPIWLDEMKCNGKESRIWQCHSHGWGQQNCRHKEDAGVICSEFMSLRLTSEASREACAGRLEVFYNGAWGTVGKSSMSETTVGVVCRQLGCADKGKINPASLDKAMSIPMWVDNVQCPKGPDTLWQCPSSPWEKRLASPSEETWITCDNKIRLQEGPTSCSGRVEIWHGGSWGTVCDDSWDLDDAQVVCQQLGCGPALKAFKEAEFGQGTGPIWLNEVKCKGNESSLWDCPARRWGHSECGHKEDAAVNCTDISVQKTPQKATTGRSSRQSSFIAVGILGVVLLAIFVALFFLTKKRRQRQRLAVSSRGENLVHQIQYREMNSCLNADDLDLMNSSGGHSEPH

B1: AB102 (antibody, human IgG1, kappa)
light: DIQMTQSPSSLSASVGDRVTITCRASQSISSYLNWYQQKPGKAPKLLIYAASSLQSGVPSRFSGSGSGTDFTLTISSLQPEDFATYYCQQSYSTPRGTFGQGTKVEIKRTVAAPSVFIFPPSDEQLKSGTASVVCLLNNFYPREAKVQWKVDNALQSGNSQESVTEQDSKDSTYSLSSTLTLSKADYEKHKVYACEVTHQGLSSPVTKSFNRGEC
heavy: EVQLVESGGGVVQPGRSLRLSCAASGFTFSSYAMHWVRQAPGKGLEWVAVISYDGSNKYYADSVKGRFTISRDNSKNTLYLQMNSLRAEDTAVYYCARENVRPYYDFWSGYYSEYYYYGMDVWGQGTTVTVSSASTKGPSVFPLAPSSKSTSGGTAALGCLVKDYFPEPVTVSWNSGALTSGVHTFPAVLQSSGLYSLSSVVTVPSSSLGTQTYICNVNHKPSNTKVDKRVEPKSCDKTHTCPPCPAPEFEGGPSVFLFPPKPKDTLMISRTPEVTCVVVDVSHEDPEVKFNWYVDGVEVHNAKTKPREEQYNSTYRVVSVLTVLHQDWLNGKEYKCKVSNKALPASIEKTISKAKGQPREPQVYTLPPSREEMTKNQVSLTCLVKGFYPSDIAVEWESNGQPENNYKTTPPVLDSDGSFFLYSKLTVDKSRWQQGNVFSCSVMHEALHNHYTQKSLSLSPGK
notes: Biotinylated for the PFA immunoprecipitation and AF647 conjugated for flow cytometry; also called AB101 FcNull antibody; AB101 in FcNull framework; copies: 2 + 2
[1]
  EC50 (read off the curve): ~10 nM
[2]
  EC50 (read off the curve): ~1 nM
